Test: soluble on expression in E. coli; label from the status in PepcDB or PDB records

| Sequence | soluble on expression in E. coli |
| --- | --- |
| MSLPAYKRVLLKLSGEALMGDDAFGINRSTIEGMVNDIAEIVRLGVQVAVVIGGGNIFRGVAGGAAGMDRATADYMGMLATMMNALALQDAMRHANIEGRVQSALRMDQVVEPYIRPRAIRQLEEGKVVIFAAGTGNPFFTTDTAAALRGSEIGAEIVLKATKVDGVYTADPKKDPSATRYTTISFDEAISRNLQVMDATAFALCRDQKLPIKVFSIQKPNALKRVIMGEDEGTLEGHHHHHH | soluble |
| KLSPMIDLWDTLQSLLHVQELHVVAAHGEVKELLVRMSLNEATIPPEKVPIHAINLLLEDTVIPFIFTMEEERSISIPYTDSIDKYVYEPHTALLKAGAFKTVAYRLGLRKLHPNSHLYTSEAYESAFPGRTFVLEEIIPFSTSVLKQLRKVVPQASISCRNFPLSPIELRQRSKMADGGEKTLMGTTMADGKKVLLLLRKAE | not soluble |
| MTVQTAIFDLIKQAKTIIIHRHQRPDPDAIGSQLGLAAIIKASFPAKRVLTPGKQYHGFDWLGQMDEVTEADYQDALVLILDTANQPRIDGELWNQGKTIVKIDHHPNDDAFGDPQWVDVDASSTSEMIYNWYAPLAAELTLTANAARLLYAGIVGDTGRFLYSATKPSTMRAAAALMEAGADAEAVNRIEDTITLPVARLSAYVYEHLTQLDSGAAYVILTNAILDSFAIGDASTAGVVPLPGRIDTVKCWAIFVQQKEGDFRIRLRSKGPSINGVAKNHDGGGHALASGAKAKDQQEIETVVRELDQVASQYEKEVLEHHHHHH | not soluble |
| MTNHIEYKKNQIIASSEIDDLIFMSAPQEWSLEEQKEIQDKLVREAFHFHYNRNEKYRNYCISQHINENLHSIDEIPVFPTSIFKHMKFHTVSMGDIENWHTSSGTQGIKSCIARDRLSIERLLGSVNFGMKYVGNWFEHQMELVNLGPDRFSASNVWFKYVMSLVELLYPTVFTVNNDKIDFEETVNHLYRINNSNKDICLIGPPFFVSLLCQYMKENNIEFKGENRLHVITGGGWKSNENSSLNRQDFNQLIMDTFQLDNVNQIRDTFNQVELNTCFFEDEFQRKHVPPWVYARALDPETLKPVADGELGLLSYMDASSTAYPAFIVTDDIGIVREIREPDPYPGVTVEIVRRLNTRAQKGCALSMASFIQSTILEHHHHHH | not soluble |
| MSLVWKLLGGSKKEFVTPYASLLPDGHTLKEYSDSLVKKTIKAKELGFKAAKLEICIKGPYSHNNLQIEDDREFANMVKLCRKAVGNDMILMADVAYAWPDWKTALIALNMVENEDLFFIETPLPIEDLKGSKKLAEHSKTRIATGEMLQTRFECFETIEKGGIDVIQPDVGRVGGLTEAKRVCDYAEDNGILVVPHCWKSAIGIAASAHLSATTNMCPYIEFLPKELAESQLRKDLVLKELDVVDGQIPLPQQPGLGIEINDDKLKEYGVEGHHHHHH | not soluble |
| MGSDKIHHHHHHMSVETLPIILKELRLVSLLPHWQPLAEKAREQHWPVERYLAELCQLELSCREQKRLHRGLKEATLPIGKYLDTYDFSEVEGLSKKQVWHLADNAEWLKTGDNILLFGASGLGKTHIAAGLGYRLVEQGHRVKFMSASLLVQHLQKAKEELRLPEALVKLDRFAVLILDDLGYVQKSTEETSVLFELIAHRYERYSLIITSNQSFEDWDKLFSDTVMTVAAIDRLIHHAKILQCKGESYRRKEAQNKLN | not soluble |
| KFLHEISLVLQTSVDLDEVLSVVMTAITAGKGFGMNRAFLLLTDKERKHLRGYLGVGPRNYGEAWFIWDEISRDDFTLKEMAKNFYQTKFTSEKQKFHDILENLTIPLSEHDHILVRALREKKPLLVENAFHNPDCDYSLTQTLGVDTFLITPLVSRNRRIGVIISDNCVTHKPITPQDVQSLETFAFPVAFAIERASLYERLQEE | not soluble |
| MGSDKIHHHHHHMNNKGKLAILFIDALPYFKSRNIGQILNLYRLIPGLGYSVNQHYELLYGKTPDDVGFFGEWSLGCSTKFDTIKFRFHKTIDSILWKLKLNLIRKGYRKIILRLEDMIPLGRRKYFLRKGTYAFRELAKEGFILYNTQFRGYIEELDRTLPRNEEKRMETMFNKMFNIAKNTDHPLLFTINIIDHIGHKYGPESPEYDYFLDLFAKKLLDLLIFLKENGFHVILFSDHGMSPYKAKVNLSDFEHYFGKFFGKYIVYFYDSLYFRAWIFDSFLYLEIEEFLNKLPGKILSSNDRKKFGVVHEEHGHVIFVLNEGFTFHPNYFGYSVMKGYHGYLPEFERQHGIAAFSRAFKIDNLFQGNPPKYLNSIDFSRIIKHILEANRNV | not soluble |
| GSHMRKTLVLLGAHGVGRRHIKNTLITKHPDRFAYPIPHTTRPPKKDEENGKNYYFVSHDQMMQDISNNEYLEYGSHEDAMYGTKLETIRKIHEQGLIAILDVEPQALKVLRTAEFAPFVVFIAAPTITPGLNEDESLQRLQKESDILQRTYAHYFDLTIINNEIDETIRHLEEAVELVC | soluble |
| MGSDKIHHHHHHVEQAQLDEYLDRFQLTDVFAGGLREHLQPVAFQAGDWLCRQGDAADRMYLLLEGKLKITHMSATGKRLVLSFKHPFDLVGDIEYVRRTPLMNTVEAVTPVKAVSISYAALEQKGADNPALLRFLLETITMKFELKSHSMSFNLLYPVEVRLASYLLSMTPETPTLPVSDLVDAADLIGTSYRHLNRVLRQFSQDNLIERTNRTITIIDREGLTERVGESIYE | not soluble |
| MSIPITVKTVADLIIGEKGIICGFTDEETSLKLLEMGCLPGCEIELDRKAPLGDPICINVCGYTLSMRLEEASTILLSLEHHHHHH | not soluble |
| MGSDKIHHHHHHKVSEAEAAKLGTSLTPMGGEMAASADGSIPAWNGGITAAPAGYKKGDHHPDPYSADKVEYTVTKANLEQYKSLLTPGQIKLFELYPDTFKMNVYKTQRSASAPQWVYDATKANASRAELVQGGNGVVGAAVGIPFPIPQNGLEAIWNHILRFRGVDIETQRNQAAPAKGGGYTLVELSEQLRFEYSQPDMTPEKLKENNTLALFKQVVTQPARLAGTALLVKETLDQEALPRQAWTYNTGQRRVRKAPNVAFDTPGTVSDGLRTTDDYDMFNGSPSRYNWELVGKKEILIPYNDYKLHSDKVKYDDILTPGHINPDLVRWEKHRVWEVKATLKDGMRHIYKTRVFFLDEDSWQVSATDMYDNRDELYRVAFAHGLNYYEVPAHWSTLEVFHDLQSRRYLAIGLDNEGSMYDFDAKLSASDFTPDALRREGVR | not soluble |
| MAHHHHHHMLRRTQRWLLLNVSGESPSFRSKPVRNLQMDVQMSPYKEQFKDYWSTPVPWADREYGEKPKLGAPIPTRRAATAIVVGKNKHVAVDKVERGEDNDYKVLMMFREGKNRFVRDQFIFPSFPISLEDSSEDWEKILRRRGVKTAWNDLHHRLCAMRALFAQMNILLVPKEGGGLVEVEGPPGPKKWHLLVHSQPKAMKNLVDVLELPMETCLSQLLPFRCITTPTTETFRFDNLVYLVPFEKIPDVRFTISTVGEKLVWVSPMEAMARFNAGIMNMPTPNIIAISELNNECPIFADVTKRKPHDDYRSILPELYRHSQTKVATVLLPGDLMHPNTTEEDKAERYIRRFVYEKDYPFGIRAVFEERPATTEEMNEPLIQEAPKLLEEANEMDMVYADTPYPKREKQPGEIGRTRFPVPSYSFQEGAENEEGVIPVRNRNIESVGDLYSQTN | not soluble |
| MGSDKIHHHHHHMFENILWKMVKKRLIPKRKISRVHRSRKGVKRVVCVAFPLDQMFKSADDFIDALMEILQEDLPFVDLLIFPRLTGNLLAGVSPIRIENFEKLDPFYTDLLRYISKGLDVPIVAPGVETFRTSPDVLVIENGEVLHRYTLRERFAVADFGEWYAAVLRKEDTLSSKALRPLVEKNVFAFIHFDLETEENDWWKEKKGLWARSQSLEVFGIKVSPRGTFLGKTYRGKSYVSAPIPLTPNLTGFLRQDCGVKMSVDLELDLLKGKRHRIDTVKHILFRG | not soluble |
| TDAPANQGFIIGVTGCPAGVAHTYLAAEALEKGAAAMGYEIKVETNGSIGVKNSPTAEEIERADAIIVACDKQVDMNRFAGKRVVKTNVKAPIRDAQGLINEALNAPTY | not soluble |
| MAHHHHHHMSEERVKILVLGPSRSGKSTIANFLAGLRETPTKGYYETQPLRILEVEIGLDNLKVGGRHVVGPKKAIVQLWDLGGSSKHQAGWQAVAANADGIIYVFNPEVRGAEKELVLWHKNFALDQDKLDERNNFKVRVPDKHSLVFSHHSSMPELAVGDNAIPSLPKQLRGVRAIETSLDYQSGNFKEAFDAMVEQIVVSRIVAEEDEILQKEREAGDAPRMVR | not soluble |

Source: the DeepSol protein solubility set
